Laboratory results from patent US11802878B2, “Protein sequencing method and reagents” (The Governing Council of the University of Toronto, priority 2009, dated 2023).

Legend:
[1] = system: immobilized biotinylated peptide, N-terminal amino acid D (X-SDGMFTAGSLIGK(biotin)); assay: Phage ELISA, binding to immobilized peptide, N-terminal D
Procedure: (§1) Given the discovery that the specificity pocket library was functionally robust, selections against synthetic peptide ligands were carried out using this library. The specificity pocket library was selected against 20 biotinylated peptides, each with a different N-terminal residue atop a common leader sequence (X-SDGMFTAGSLIGK(biotin)) (SEQ ID NO: 4). The peptides were immobilized individually to the bottom wells of a microtiter plate. […] Consequently, ClpS mutant variants that prefer other residues in addition to the ligand ‘bait’ would bind those competing peptides in solution and simply be washed away. Only selective variants that bound to the immobilized target(s) were amplified during each subsequent round of selection.
(§2) To evaluate the specificity and selectivity of individual clones, both wild-type ClpS and the selected variants' binding to each of the biotinylated peptides independently were tested. The same approach was also used to monitor the progress of the selections and to prioritize particular pools of phage for further investigation.
(§3) Promising single clones were picked from the selection pools and their specificity was evaluated using the same panel of biotinylated peptides and various amounts of phage supernatant. […] Accordingly, Variant 1 represents a selective N-terminal amino acid capture probe for tryptophan useful for the sequencing methods described herein. Variant 1 also represents a useful scaffold for performing further generation and selection of variants with desirable properties for use as additional N-terminal amino acid capture probes.
(§4) The selection and ELISA protocols are very similar. Briefly, each well of a 96-well Maxisorp plate was coated overnight at 4° C. with 100 μl of 10 μg/ml neutravidin in PBS, or 1:500 dilution of anti-FLAG antibody. […]
(§5) For the ELISA readouts, 100 μl of pH adjusted phage supernatant or polyethylene glycol (PEG) precipitated concentrated phage was added to appropriate wells and allowed to bind for 1 hour at 4° C. […] The reaction was stopped by addition of 90 μl of 1M H3PO4 and the absorbance at A450 nm was read.

[2] = system: immobilized biotinylated peptide, N-terminal amino acid F (X-SDGMFTAGSLIGK(biotin)); assay: Phage ELISA, binding to immobilized peptide, N-terminal F
Procedure: as §1, §2, §3, §4, §5

[3] = system: immobilized biotinylated peptide, N-terminal amino acid W (X-SDGMFTAGSLIGK(biotin)); assay: Phage ELISA, binding to immobilized peptide, N-terminal W
Procedure: as §1, §2, §3, §4, §5

[4] = system: immobilized biotinylated peptide, N-terminal amino acid G (X-SDGMFTAGSLIGK(biotin)); assay: Phage ELISA, binding to immobilized peptide, N-terminal G
Procedure: as §1, §2, §3, §4, §5

[5] = system: immobilized biotinylated peptide, N-terminal amino acid I (X-SDGMFTAGSLIGK(biotin)); assay: Phage ELISA, binding to immobilized peptide, N-terminal I
Procedure: as §1, §2, §3, §4, §5

[6] = system: immobilized biotinylated peptide, N-terminal amino acid R (X-SDGMFTAGSLIGK(biotin)); assay: Phage ELISA, binding to immobilized peptide, N-terminal R
Procedure: as §1, §2, §3, §4, §5

[7] = system: immobilized biotinylated peptide, N-terminal amino acid T (X-SDGMFTAGSLIGK(biotin)); assay: Phage ELISA, binding to immobilized peptide, N-terminal T
Procedure: as §1, §2, §3, §4, §5

[8] = system: immobilized biotinylated peptide, N-terminal amino acid P (X-SDGMFTAGSLIGK(biotin)); assay: Phage ELISA, binding to immobilized peptide, N-terminal P
Procedure: as §1, §2, §3, §4, §5

B1: ClpS WT: truncated wildtype E. coli ClpS polypeptide, 84 amino acids, SEQ ID NO: 1, displayed on phage (protein, listed as Escherichia coli)
chain: KPPSMYKVILVNDDYTPMEFVIDVLQKFFSYDVERATQLMLAVHYQGKAICGVFTAEVAETKVAMVNKYARENEHPLLCTLEKA
modifications: phage display
[1]; N-terminal D, phage 10X, sub Fab
  phage ELISA binding signal: −0.29
[1]; N-terminal amino acid D, Table 1
  phage ELISA binding signal: −0.29
[2]; N-terminal F, phage 10X, sub Fab
  phage ELISA binding signal: 1.81
[2]; N-terminal amino acid F, Table 1
  phage ELISA binding signal: 1.81
[3]; N-terminal W, phage 10X, sub Fab
  phage ELISA binding signal: 0.77
[3]; N-terminal amino acid W, Table 1
  phage ELISA binding signal: 0.77
[4]; N-terminal G, phage 10X, sub Fab
  phage ELISA binding signal: −0.04
[4]; N-terminal amino acid G, Table 1
  phage ELISA binding signal: −0.04
[5]; N-terminal I, phage 10X, sub Fab
  phage ELISA binding signal: −0.16
[5]; N-terminal amino acid I, Table 1
  phage ELISA binding signal: −0.016
[6]; N-terminal R, phage 10X, sub Fab
  phage ELISA binding signal: 0.13
[6]; N-terminal amino acid R, Table 1
  phage ELISA binding signal: 0.13
[7]; N-terminal T, phage 10X, sub Fab
  phage ELISA binding signal: 0.01
[7]; N-terminal amino acid T, Table 1
  phage ELISA binding signal: 0.01
[8]; N-terminal P, phage 10X, sub Fab
  phage ELISA binding signal: −0.07
[8]; N-terminal amino acid P, Table 1
  phage ELISA binding signal: −0.07
